Source: patent US20050282743A1, “Molecular interactions in cells” (Arbor Vita Corporation, priority 2001, published 2005)
Counter-ions that a name gives are not always drawn. Ends that are not written are not given here. * marks the point of attachment. Biotin = O=C1N[C@H]2[C@H](CS[C@H]2CCCCC(=O)*)N1

Key:
Type in all cases: binding
[1] = molecular target: T1, PSD-95 (Homo sapiens, UniProt P78352); assay: G assay competition of short unlabeled peptides with biotinylated 20-mers (Example 6, TABLE 6); details: competitor 50 uM, 100 = no competitor
T1 construct: protein spans from amino terminal end of first PDZ domain to carboxy-terminal end of third PDZ domain in frame with GST in vector; made in house; host or cells: E. coli DH5alpha
Text: (§1) The potential for unlabeled 8-mers and 3-mers to compete for binding with biotinylated 20-mers to PDZ domains was examined. Interactions between a PDZ domain and two or more biotinylated peptides mimicking PDZ ligands identified through the ‘G Assay’ were used as model interactions. Short, 3 or 8 amino acid, unlabeled peptides were synthesized by standard techniques and used at variable concentrations with a set concentration of biotinylated 20-mer. Ability of both the 3-mer and 8-mer to inhibit longer peptide binding was observed, making PDZ:PL interactions an attractive target for design of small molecule or peptide therapeutics.
(§2) Peptides representing the C-terminal 3, 8 or 20 amino acids of a PDZ ligand were synthesized by standard FMOC chemistry and biotinylated if not used as an unlabeled competitor. Peptides three amino acids in length were acetylated to more properly mimic the peptide bond without introducing an amino-terminal charged group. Peptides were purified by reverse phase high performance liquid chromatography (HPLC) using a Vydac 218TP C18 Reversed Phase column having the dimensions of 10*25 mm, 5 um. Approximately 40 mg of peptide was dissolved in 2.0 ml of and aqueous solution of 49.9% acetonitrile and 0.1% Tri-Fluoro acetic acid (TFA). This solution was then injected into the HPLC machine through a […] syringe filter (Millipore). Buffers used to get a good separation are (A) distilled water with 0.1% TFA and (B) 0.1% TFA with Acetonitrile.
(§3) The G Assay was performed as described in EXAMPLE 3 with the exception that when a short competitor was used, 30 ul of competitor peptide (at twice the final concentration) was mixed with 30 ul biotinylated 20-mer (at twice the final concentration) and then added to the well.
(§4) PSD-95 and DLG-1 were incubated in the wells at 5 ug/ml as described in the G Assay protocol. Biotinylated 20-mer peptides used were 20 uM CLASP-2, 20 uM CD46, 10 uM CD95, and 10 uM KV1.3 (find sequences of peptides in TABLE 8). Competitors (unlabeled, short peptides) tested against each of the biotinylated peptides were 50 uM 8-mer of CD95, 100 uM 8-mer of CD46, 50 uM 8-mer of CLASP-2, and 1 mM and 500 uM acetylated 3-mer of CLASP-2. To deduce sequences, refer to TABLE 8. All absorbances were read at 450 nm after stopping TMB detection reaction at 30 min. Results were normalized in each group by dividing its A450 by the A450 of the PDZ/peptide binding in the absence of competitor and converting to percentage by multiplying by 100.

[2] = molecular target: T2, DLG-1 (Homo sapiens, UniProt Q12959); assay: as above; details: competitor 50 uM; for % binding: 100 = no competitor
T2 construct: protein spans from amino terminal end of first PDZ domain to carboxy-terminal end of third PDZ domain in frame with GST in vector; made in house; host or cells: E. coli DH5alpha
Text: as §1, §2, §3, §4

[3] = molecular target: T3, TIP-1 (GST-TIP-1) (Homo sapiens, UniProt O14907, I73S); assay: G assay with unlabeled 8 amino acid competitor peptide (Example 4, FIGS. 2B, 2C)
T3 construct: made in house; host or cells: E. coli DH5alpha
T3 sequence (O14907 3-123 I73S): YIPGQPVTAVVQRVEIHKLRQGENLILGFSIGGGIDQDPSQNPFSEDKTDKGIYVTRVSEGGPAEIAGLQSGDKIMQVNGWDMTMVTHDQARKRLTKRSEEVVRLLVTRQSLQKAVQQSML
Method: FIGS. 2A, 2B and 2C show binding and competition assays with the PDZ ligands of CD95 (Fas) and Tax for the PDZ domain of TIP-1.
Upon infection, the higher affinity of Tax could preferentially bind TIP-1 protein available in the cell, removing the TIP-1 bound to CD95 (Fas) and thereby rendering the cell less able to undergo apoptosis. In order to test this, competition experiments between Tax and CD95 for TIP-1 binding were performed using the ‘G Assay’, but adding additional unlabeled competitor peptide at step 9 of the ‘G Assay’ presented in EXAMPLE 3 section D.
FIGS. 2B and 2C show the results of these experiments. The graphs show the amount of binding of the biotinylated 20 amino acid peptide in the presence of increasing concentrations of unlabeled 8 amino acid competitor.

[4] = molecular target: T4, ZO-2 (1/3) : DNAM (22L) (Homo sapiens, UniProt Q9UDY2); assay: G assay with FDA approved drug (Example 7, TABLE 10B)
T4 construct: made in house; host or cells: E. coli (DH5α, BL21 or JM109)
T4 sequence (Q9UDY2 27-122): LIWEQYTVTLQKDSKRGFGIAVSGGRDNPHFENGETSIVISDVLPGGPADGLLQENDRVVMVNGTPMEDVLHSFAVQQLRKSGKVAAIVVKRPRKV
Method: For certain of the PDZ proteins and PL proteins shown to bind together and for which Kd values had been obtained, additional testing was conducted to determine whether certain pharmaceutical compounds would act to antagonize or agonize the interactions. Assays were conducted as for the G′ assay described supra both in the presence and absence of test compound, except that 50 ul of a 10 uM solution of the biotinylated PL peptide is allowed to react with the surface bearing the PDZ-domain polypeptide instead of a 20 uM solution as specified in step (2) of the assay.
In both tables, the first column (left to right) entitled “PDZ domain” lists the gene name of GST-PDZ domain fusion (see TABLE 9). Entries having two numbers separated by a slash indicate which PDZ domain was utilized. For example, in TABLE 10A, the entry for ZO-3 is 1/3. This means that PDZ domain 1 of 3 was used.
The second column labeled “PL” indicates the name of the PDZ ligand (see TABLES 10A and 10B) interacting with the PDZ domain. The third column entitled “Drug” lists the common or trade name of pharmaceutical compound tested and found to modulate the specific PDZ-PL interaction (suppliers and chemical information are listed in TABLE 11). The final column with the heading “Change in OD” indicates the change in absorbance at 450 nm of the assay in the absence (first number) or presence (second number) of chemical compound.
Many FDA approved drugs have unknown mechanism of function. It is quite possible that some of these drugs function by disrupting or increasing PDZ/PL interactions. This possibility was examined by using the ‘G Assay’ (Example 3 section D). FDA approved drugs were incubated in the presence of the labeled peptide and compared to the same interaction without drug to determine if there was an effect on specific PDZ:PL interactions (drugs added with peptide at step 9 in Example 3D). The primary focus of this experiment was on drugs involved in treatment of depression (amitriptyline, desipramine, trimipramine, benztropine, and nortryptilline) and epilepsy (valproic acid). No modes of action are known for these drugs.
Therapeutic dose was determined by guidelines given in the Physician's Desk Reference and in the assay, 200 times this amount was used. If a dosage range was given, the upper end of the range was used. Each interaction listed in TABLES 10A & B was tested in the ‘G Assay’ (see Example 3) against each of the drugs listed in TABLE 11. The concentration of GST-fusion protein and peptide used in the assay represent the Kd and were determined by titration. These values can be found in TABLE 7. The drugs were added to the peptide before addition to the well containing the PDZ protein. Otherwise, the assay was carried out as described and read at 450 nm after 30 minutes of developing. For the sequences of the PDZs and PLs used in these tests, see TABLES 8 & 9.
List of interactions and therapeutics for which a modulation of binding was observed. Concentrations at which the GST-PDZ fusion protein and labeled peptide were used can be found in Table 7 or Table 12.

[5] = molecular target: T5, PDZ protein (GST-PDZ fusion) (Homo sapiens, UniProt P55196); assay: G' assay (10 uM PL peptide), results of TABLE 7 and TABLE 12; details: PDZ AF6, PDZ Domain 1
T5 construct: made in house; host or cells: E. coli (DH5alpha, BL21 or JM109)
In short: (§5)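 Binding classes derive from A450 nm of bound biotin-tagged PL peptide. A score of 5 needs A450 above 4 in more than two repeats.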

[6] = tested on: PDZ protein (GST-PDZ fusion); assay: as above; details: PDZ LIM Protein, PDZ Domain 1
In short: as §5

[7] = molecular target: T6, PDZ protein (GST-PDZ fusion) (Homo sapiens, UniProt Q13796); assay: as above; details: PDZ hAPXL, PDZ Domain 1
T6 construct: made in house; host or cells: E. coli (DH5alpha, BL21 or JM109)
In short: as §5

[8] = molecular target: T7, PDZ protein (GST-PDZ fusion) (Homo sapiens, UniProt Q9NR12); assay: as above; details: PDZ ENIGMA, PDZ Domain 1
T7 construct: made in house; host or cells: E. coli (DH5alpha, BL21 or JM109)
In short: as §5

[9] = molecular target: T8, PDZ protein (GST-PDZ fusion) (Homo sapiens, UniProt P50479); assay: as above; details: PDZ LIM RIL, PDZ Domain 1
T8 construct: made in house; host or cells: E. coli (DH5alpha, BL21 or JM109)
T8 sequence (P50479 1-330): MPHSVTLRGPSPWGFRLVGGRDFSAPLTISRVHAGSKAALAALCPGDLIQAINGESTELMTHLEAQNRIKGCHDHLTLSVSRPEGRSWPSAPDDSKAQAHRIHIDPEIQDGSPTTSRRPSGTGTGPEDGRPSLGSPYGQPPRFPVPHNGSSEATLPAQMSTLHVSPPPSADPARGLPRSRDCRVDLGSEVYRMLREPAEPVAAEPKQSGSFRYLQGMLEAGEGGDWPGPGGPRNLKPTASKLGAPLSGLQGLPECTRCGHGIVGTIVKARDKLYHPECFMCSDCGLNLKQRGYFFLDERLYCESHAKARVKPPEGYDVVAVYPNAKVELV
In short: as §5

[10] = biotinylated 20-mer CLASP-2 20 uM
[11] = biotinylated 20-mer KV1.3 10 uM

T2 sequence (Q12959 224-546 limits assumed): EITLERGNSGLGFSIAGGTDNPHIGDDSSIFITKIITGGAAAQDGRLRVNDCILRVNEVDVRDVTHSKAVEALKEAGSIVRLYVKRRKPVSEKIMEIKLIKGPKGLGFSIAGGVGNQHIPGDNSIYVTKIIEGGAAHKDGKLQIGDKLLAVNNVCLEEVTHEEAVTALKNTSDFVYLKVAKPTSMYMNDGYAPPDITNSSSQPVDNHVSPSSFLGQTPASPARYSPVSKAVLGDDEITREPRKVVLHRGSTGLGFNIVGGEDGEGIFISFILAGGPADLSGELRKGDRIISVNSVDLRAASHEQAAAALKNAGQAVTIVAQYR
T1 sequence (P78352 58-398 limits assumed): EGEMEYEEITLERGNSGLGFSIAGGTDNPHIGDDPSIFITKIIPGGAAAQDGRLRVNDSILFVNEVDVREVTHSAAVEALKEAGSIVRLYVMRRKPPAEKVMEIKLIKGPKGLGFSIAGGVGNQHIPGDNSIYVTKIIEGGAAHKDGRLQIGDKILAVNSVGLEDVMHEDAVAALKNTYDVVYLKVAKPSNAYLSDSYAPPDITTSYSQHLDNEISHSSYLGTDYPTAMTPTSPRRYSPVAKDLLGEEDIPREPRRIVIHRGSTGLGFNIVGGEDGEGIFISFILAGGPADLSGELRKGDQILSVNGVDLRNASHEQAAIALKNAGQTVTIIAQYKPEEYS
T7 sequence (Q9NR12 whole entry, the tested form may be a part): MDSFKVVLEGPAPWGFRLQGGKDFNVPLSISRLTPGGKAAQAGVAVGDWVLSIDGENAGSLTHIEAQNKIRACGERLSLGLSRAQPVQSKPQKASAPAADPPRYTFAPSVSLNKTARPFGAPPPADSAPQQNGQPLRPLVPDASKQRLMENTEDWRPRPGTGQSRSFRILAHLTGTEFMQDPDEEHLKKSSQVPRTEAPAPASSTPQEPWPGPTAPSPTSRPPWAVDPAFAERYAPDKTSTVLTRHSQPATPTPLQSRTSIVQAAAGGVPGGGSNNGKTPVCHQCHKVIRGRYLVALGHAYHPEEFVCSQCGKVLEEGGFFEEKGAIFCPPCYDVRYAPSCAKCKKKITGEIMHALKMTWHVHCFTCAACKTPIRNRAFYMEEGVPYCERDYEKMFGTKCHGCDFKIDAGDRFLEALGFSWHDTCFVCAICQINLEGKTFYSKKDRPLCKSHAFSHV
T6 sequence (Q13796 whole entry, the tested form may be a part): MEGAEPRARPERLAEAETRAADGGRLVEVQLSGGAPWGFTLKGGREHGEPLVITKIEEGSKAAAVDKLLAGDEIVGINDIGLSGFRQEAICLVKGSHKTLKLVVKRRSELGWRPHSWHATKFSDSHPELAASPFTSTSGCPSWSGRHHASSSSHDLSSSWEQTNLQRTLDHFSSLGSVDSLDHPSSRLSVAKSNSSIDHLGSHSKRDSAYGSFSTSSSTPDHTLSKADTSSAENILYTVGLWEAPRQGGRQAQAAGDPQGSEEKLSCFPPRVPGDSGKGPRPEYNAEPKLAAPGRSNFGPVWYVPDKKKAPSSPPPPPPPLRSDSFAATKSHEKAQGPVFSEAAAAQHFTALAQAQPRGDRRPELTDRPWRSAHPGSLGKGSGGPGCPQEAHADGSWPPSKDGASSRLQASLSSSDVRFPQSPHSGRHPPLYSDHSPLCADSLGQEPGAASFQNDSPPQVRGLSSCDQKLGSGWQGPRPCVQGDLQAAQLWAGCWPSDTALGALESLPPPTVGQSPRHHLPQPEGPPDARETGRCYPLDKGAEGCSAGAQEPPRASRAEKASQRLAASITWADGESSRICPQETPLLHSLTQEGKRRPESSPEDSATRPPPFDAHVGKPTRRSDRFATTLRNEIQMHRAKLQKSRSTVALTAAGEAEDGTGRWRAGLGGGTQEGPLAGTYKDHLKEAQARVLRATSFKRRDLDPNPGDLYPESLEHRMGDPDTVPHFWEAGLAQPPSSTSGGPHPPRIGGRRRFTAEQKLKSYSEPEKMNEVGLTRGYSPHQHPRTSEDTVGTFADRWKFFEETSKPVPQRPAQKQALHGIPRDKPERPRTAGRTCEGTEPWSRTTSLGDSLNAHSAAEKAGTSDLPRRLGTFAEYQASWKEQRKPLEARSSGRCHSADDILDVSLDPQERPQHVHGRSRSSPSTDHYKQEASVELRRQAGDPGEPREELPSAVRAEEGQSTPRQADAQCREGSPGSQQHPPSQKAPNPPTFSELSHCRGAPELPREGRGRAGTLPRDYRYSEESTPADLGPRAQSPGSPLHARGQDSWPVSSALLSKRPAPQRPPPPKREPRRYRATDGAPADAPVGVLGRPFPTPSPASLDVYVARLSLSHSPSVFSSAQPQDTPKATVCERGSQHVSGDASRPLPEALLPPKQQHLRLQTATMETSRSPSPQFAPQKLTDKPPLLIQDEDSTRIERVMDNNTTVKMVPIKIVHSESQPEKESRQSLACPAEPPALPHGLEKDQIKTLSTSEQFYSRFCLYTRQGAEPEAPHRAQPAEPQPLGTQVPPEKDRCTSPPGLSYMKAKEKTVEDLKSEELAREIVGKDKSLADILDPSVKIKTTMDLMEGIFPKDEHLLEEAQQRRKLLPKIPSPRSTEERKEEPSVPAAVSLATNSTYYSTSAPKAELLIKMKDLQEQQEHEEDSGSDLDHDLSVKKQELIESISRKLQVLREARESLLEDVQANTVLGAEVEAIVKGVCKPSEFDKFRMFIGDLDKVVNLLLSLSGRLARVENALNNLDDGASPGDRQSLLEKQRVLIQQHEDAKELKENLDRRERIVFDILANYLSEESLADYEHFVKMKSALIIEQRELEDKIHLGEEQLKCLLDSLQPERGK
T5 sequence (P55196 whole entry, the tested form may be a part): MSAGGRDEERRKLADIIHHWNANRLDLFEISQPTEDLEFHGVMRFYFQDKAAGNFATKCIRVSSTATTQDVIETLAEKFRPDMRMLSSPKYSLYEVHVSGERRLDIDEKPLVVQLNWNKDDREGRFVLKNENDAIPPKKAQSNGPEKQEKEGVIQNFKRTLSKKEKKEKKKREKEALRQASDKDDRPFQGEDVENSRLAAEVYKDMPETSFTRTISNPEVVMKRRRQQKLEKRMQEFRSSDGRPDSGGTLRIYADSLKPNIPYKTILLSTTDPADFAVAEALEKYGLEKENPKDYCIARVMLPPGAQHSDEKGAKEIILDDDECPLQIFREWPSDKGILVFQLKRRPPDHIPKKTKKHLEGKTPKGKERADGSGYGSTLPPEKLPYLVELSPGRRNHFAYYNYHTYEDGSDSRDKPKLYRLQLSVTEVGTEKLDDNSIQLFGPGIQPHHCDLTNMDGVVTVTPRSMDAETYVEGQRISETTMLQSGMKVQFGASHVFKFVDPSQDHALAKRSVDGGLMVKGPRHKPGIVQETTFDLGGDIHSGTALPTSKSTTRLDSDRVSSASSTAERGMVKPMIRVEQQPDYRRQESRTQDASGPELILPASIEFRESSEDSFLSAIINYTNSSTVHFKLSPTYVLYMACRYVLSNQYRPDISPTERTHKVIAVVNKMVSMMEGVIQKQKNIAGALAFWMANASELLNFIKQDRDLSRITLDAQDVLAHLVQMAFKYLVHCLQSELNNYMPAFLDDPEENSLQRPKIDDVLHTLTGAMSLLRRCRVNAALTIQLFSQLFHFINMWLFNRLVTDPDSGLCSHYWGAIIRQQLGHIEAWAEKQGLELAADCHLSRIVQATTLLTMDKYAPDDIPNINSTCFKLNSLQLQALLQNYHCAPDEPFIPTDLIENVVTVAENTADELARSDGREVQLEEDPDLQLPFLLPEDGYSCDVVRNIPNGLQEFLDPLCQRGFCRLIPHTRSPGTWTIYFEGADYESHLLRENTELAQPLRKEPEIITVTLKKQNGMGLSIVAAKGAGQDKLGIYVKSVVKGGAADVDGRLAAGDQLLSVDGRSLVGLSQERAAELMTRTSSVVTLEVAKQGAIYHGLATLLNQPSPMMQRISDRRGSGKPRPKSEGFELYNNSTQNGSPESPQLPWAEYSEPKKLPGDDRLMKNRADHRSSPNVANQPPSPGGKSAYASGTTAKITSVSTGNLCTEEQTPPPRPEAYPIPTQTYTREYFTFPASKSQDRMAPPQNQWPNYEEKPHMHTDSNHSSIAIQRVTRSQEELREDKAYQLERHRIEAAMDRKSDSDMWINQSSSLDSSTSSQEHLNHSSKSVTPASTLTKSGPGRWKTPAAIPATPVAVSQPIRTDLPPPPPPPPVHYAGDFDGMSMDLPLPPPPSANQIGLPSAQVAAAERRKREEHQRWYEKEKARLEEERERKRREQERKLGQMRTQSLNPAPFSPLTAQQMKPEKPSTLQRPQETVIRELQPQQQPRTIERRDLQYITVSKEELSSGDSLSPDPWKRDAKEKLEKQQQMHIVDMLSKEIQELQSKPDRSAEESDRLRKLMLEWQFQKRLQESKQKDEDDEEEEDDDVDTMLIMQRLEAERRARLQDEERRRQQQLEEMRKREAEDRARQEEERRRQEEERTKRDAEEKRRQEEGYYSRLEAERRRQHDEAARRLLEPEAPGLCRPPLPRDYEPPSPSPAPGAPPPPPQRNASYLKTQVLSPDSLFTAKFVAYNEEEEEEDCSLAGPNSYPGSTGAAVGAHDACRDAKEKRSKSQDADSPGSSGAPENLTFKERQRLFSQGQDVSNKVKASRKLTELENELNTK

## RNEIQSLV [CD95 8-mer, unlabeled peptide of the C-terminal 8 amino acids of CD95]
[1]; biotinylated 20-mer CD46 20 uM
  % binding: 100%
[1]; biotinylated 20-mer CD95 10 uM
  % binding: 75%
[1]; [10]
  % binding: 92%
[1]; [11]
  % binding: 87%
[2]; biotinylated 20-mer CD46 20 uM
  % binding: 110%
[2]; biotinylated 20-mer CD95 10 uM
  % binding: 70%
[2]; [10]
  % binding: 73%
[2]; [11]
  % binding: 84%
[2]; 2.5 to 5-fold excess
  reduction of binding of CLASP-2 and CD95 labeled ligand: approximately 30%
[3]; unlabeled 8 amino acid CD95 competitor, 1 μM labeled Tax 20-mer
  concentration of unlabeled competitor it takes to compete for binding of Tax to TIP-1 (FIG. 2C): 100 to 500 µM
[3]; unlabeled CD95 8-mer versus labeled Tax
  excess needed to interfere with the binding of Tax to TIP-1: ~500 fold

## CNCCC=C1c2ccccc2CCc2ccccc21 [Nortryptilline, NORTRIPTYLINE HYDROCHLORIDE]
[4]; OD in absence of drug 2.1, drug concentration per TABLE 11, read after 30 minutes
  CHANGE IN OD: absorbance at 450 nm in presence of drug: 2.1 to 0.5
[4]; ZO-2 domain 1 and DNAM-1
  antagonistic effect, binding relative to absence of drug: 4.2 fold

## YSATYSELEDPGEMSPPIDL (Biotin-YSATYSELEDPGEMSPPIDL) [FceRlb]
[5]
  Classification: 2 (A450 nm 1-2)
[6]
  Classification: 2 (A450 nm 1-2)
[7]
  Classification: 1 (A450 nm 0-1)
[8]
  Classification: 2 (A450 nm 1-2)
[9]
  Classification: 1 (A450 nm 0-1)

## EVIGYIEKPGVETLEDSVF (Biotin-EVIGYIEKPGVETLEDSVF) [CDW125 (modified)]
[7]
  Classification: 1 (A450 nm 0-1)
[8]
  Classification: 1 (A450 nm 0-1)
